Measurements taken from patent US8815802 (Novo Nordisk, dated 2014).
Residue numbers refer to the chain shown, from its start. Numbered stars: 1 amine (or outer) side, 2 acyl side, 3 side chain; on linkers, the order of the positions; unused ones are H or OH. Square brackets hold non-standard residues; d marks the D form. Side chains are listed from the residue outwards. Ends that are not written are not given here. * marks the point of attachment. X1 = 4‑(16-(1H-tetrazol-5-yl)hexadecanoylsulfamoyl)butanoyl, O=C(CCCCCCCCCCCCCCCc1nn[nH]n1)NS(=O)(=O)CCCC(=O)*; C18 diacid = O=C(O)CCCCCCCCCCCCCCCCC(=O)*; C16 diacid = O=C(O)CCCCCCCCCCCCCCC(=O)*; γGlu = O=C(O)[C@H](CCC(=O)[*:2])N[*:1]; NMeA = CN[C@@H](C)C(=O)O; AEEA = NCCOCCOCC(=O)O

B1: [Aib^8,Glu^30,His^31,Gln^34,Lys^36] GLP-1(7-37)yl-Glu^38-peptide amide (peptide)
peptide: HXEGTFTSDVSSYLEGQAAKEFIEHLVQGKGE
HELM: PEPTIDE1{H.[Aib].E.G.T.F.T.S.D.V.S.S.Y.L.E.G.Q.A.A.K.E.F.I.E.H.L.V.Q.G.K.G.E.[am]}$$$$V2.0; N-terminus assumed
SMILES: CC[C@H](C)[C@H](NC(=O)[C@H](Cc1ccccc1)NC(=O)[C@H](CCC(=O)O)NC(=O)[C@H](CCCCN)NC(=O)[C@H](C)NC(=O)[C@H](C)NC(=O)[C@H](CCC(N)=O)NC(=O)CNC(=O)[C@H](CCC(=O)O)NC(=O)[C@H](CC(C)C)NC(=O)[C@H](Cc1ccc(O)cc1)NC(=O)[C@H](CO)NC(=O)[C@H](CO)NC(=O)[C@@H](NC(=O)[C@H](CC(=O)O)NC(=O)[C@H](CO)NC(=O)[C@@H](NC(=O)[C@H](Cc1ccccc1)NC(=O)[C@@H](NC(=O)CNC(=O)[C@H](CCC(=O)O)NC(=O)C(C)(C)NC(=O)[C@@H](N)Cc1c[nH]cn1)[C@@H](C)O)[C@@H](C)O)C(C)C)C(=O)N[C@@H](CCC(=O)O)C(=O)N[C@@H](Cc1c[nH]cn1)C(=O)N[C@@H](CC(C)C)C(=O)N[C@H](C(=O)N[C@@H](CCC(N)=O)C(=O)NCC(=O)N[C@@H](CCCCN)C(=O)NCC(=O)N[C@@H](CCC(=O)O)C(N)=O)C(C)C
notes: unacylated analogue; also called (8Aib, 30E, 31H, 34Q, 36K, 38E)
B2: N^α([Aib^8,His^31,Gln^34]-GLP-1-(7-37)-peptidyl)-Lysine (peptide)
peptide: B1 peptide with E24A, K30R, E32K
modifications: Aib8 (GLP-1(7-37) numbering)
notes: unacylated analogue; also called (8Aib, 31H, 34Q, 38K)
B3: N^ε26-2,3-bis[[2-[2-[2-[[2-[2-[2-[[(4S)-4-carboxy-4-(13-carboxytridecanoylamino)butanoyl]amino]ethoxy]ethoxy]acetyl]amino]ethoxy]ethoxy]acetyl]amino]propanoyl-[ … (peptide)
peptide: HXEGTFTSDVSSYLEGQAAKEFIAHLVQGRG
modifications: not fully specified; Aib8; Lys26 N-epsilon-acylated (branched side chain as in name); GLP-1(7-37) numbering

Molecular target: T1, human GLP-1 receptor (human, UniProt P43220 24-463)
T1 construct: whole, on cells; Used as purified plasma membranes of the transfected hamster cell line, not as intact cells; also called hGLP-1
Assay: SPA, displacement of 125I-GLP-1(7-36)NH2 from hGLP-1R membranes, 2.0% HSA
Method: (§1) 25 ul (micro liter) of test compounds were added to Optiplate. HSA ("high albumin" experiment containing 2% HSA), or buffer ("low albumin" experiment containing 0.005% HSA), was added (50 ul). 5-10 ug protein/sample was added (50 ul) corresponding to 0.1-0.2 mg protein/ml (to be preferably optimised for each membrane preparation). SPA-particles (Wheatgerm agglutinin SPA beads, Perkin Elmer, #RPNQ0001) were added in an amount of 0.5 mg/well (50 ul). […] The plates were sealed with PlateSealer and incubated for 120 minutes at 30° C. while shaking. The plates were centrifuged (1500 rpm, 10 min) and counted in Topcounter.

Question: Which IC50 does the source give for H[NMeA]EGTFTSDVSSYLEGQAAK([AEEA-AEEA-γGlu-C18 diacid])EFIAHLVQGRG [N^8-methyl, …] here?
Answer: Its IC50 is at most 1 µM.

Question: Which IC50 does the source give for B1 here?
Answer: Its IC50 is at most 1 µM.

Question: Which IC50 does the source give for B2 here?
Answer: Its IC50 is at most 1 µM.

Question: HAEGTFTSDVSSYLEGQAAK([AEEA-AEEA-γGlu-C16 diacid])EFIAHLVQGRG was tested. Which IC50 did it give?
Answer: Its IC50 is at most 1 µM.

Question: Which IC50 does the source give for HAEGTFTSDVSSYLEGQAAK(X1)EFIAHLVQGRG [N^ε26-4-[16-(1H-tetrazol-5-yl)hexadecanoylsulfamoyl]butanoyl-[His^31,Gln^34]-GLP-1-(7-37)-peptide] here?
Answer: The IC50 was at most 1 µM.

Question: How did the IC50 turn out when HXEGTFTSDVSSYLEGQAAKEFIAHLVQGRG (Aib8; Lys26 N-epsilon-acylated (side chain as in name); GLP-1(7-37) numbering) was run?
Answer: The IC50 was at most 1 µM.

Question: For B3, which IC50 is on record?
Answer: Its IC50 is at most 1 µM.

Molecular target: T1, human GLP-1 receptor
Assay: SPA, displacement of 125I-GLP-1(7-36)NH2 from hGLP-1R membranes, 0.005% HSA
Method: as §1

Question: With H[NMeA]EGTFTSDVSSYLEGQAAK([AEEA-AEEA-γGlu-C18 diacid])EFIAHLVQGRG [N^8-methyl, …] as the binder, how does the IC50 read?
Answer: Its IC50 is under 0.6 µM.

Question: With B1 as the binder, how does the IC50 read?
Answer: Its IC50 is under 0.6 µM.

Question: B2 was tested. Which IC50 did it give?
Answer: Its IC50 is under 0.6 µM.

Question: HAEGTFTSDVSSYLEGQAAK([AEEA-AEEA-γGlu-C16 diacid])EFIAHLVQGRG was tested. Which IC50 did it give?
Answer: Its IC50 is under 0.6 µM.

Question: How did the IC50 turn out when HAEGTFTSDVSSYLEGQAAK(X1)EFIAHLVQGRG [N^ε26-4-[16-(1H-tetrazol-5-yl)hexadecanoylsulfamoyl]butanoyl-[His^31,Gln^34]-GLP-1-(7-37)-peptide] was run?
Answer: Its IC50 is under 0.6 µM.

Question: For HXEGTFTSDVSSYLEGQAAKEFIAHLVQGRG (Aib8; Lys26 N-epsilon-acylated (side chain as in name); GLP-1(7-37) numbering), which IC50 is on record?
Answer: The IC50 was under 0.6 µM.

Question: B3 was tested. Which IC50 did it give?
Answer: The IC50 was under 0.6 µM.
